# Laboratory results: patent publication US20140243502A1
# Columns and labels:
# [1] = target: GP IIb/IIIa in its activated, fibrinogen-bound state on activated mouse platelets (mouse) (UniProt Q9QUM0); test: ex vivo 11.7 T MRI of wire-injured mouse femoral artery after bead perfusion
# [2] = target: GP IIb/IIIa in its activated, fibrinogen-bound state on activated mouse platelets (mouse) (UniProt Q9QUM0); test: histology of wire-injured mouse femoral artery after bead perfusion, 20-25 sections per animal
# Sequence of GP IIb/IIIa in its activated, fibrinogen-bound state on activated mouse platelets (mouse) (Q9QUM0 32-1033, chain 1 of 2): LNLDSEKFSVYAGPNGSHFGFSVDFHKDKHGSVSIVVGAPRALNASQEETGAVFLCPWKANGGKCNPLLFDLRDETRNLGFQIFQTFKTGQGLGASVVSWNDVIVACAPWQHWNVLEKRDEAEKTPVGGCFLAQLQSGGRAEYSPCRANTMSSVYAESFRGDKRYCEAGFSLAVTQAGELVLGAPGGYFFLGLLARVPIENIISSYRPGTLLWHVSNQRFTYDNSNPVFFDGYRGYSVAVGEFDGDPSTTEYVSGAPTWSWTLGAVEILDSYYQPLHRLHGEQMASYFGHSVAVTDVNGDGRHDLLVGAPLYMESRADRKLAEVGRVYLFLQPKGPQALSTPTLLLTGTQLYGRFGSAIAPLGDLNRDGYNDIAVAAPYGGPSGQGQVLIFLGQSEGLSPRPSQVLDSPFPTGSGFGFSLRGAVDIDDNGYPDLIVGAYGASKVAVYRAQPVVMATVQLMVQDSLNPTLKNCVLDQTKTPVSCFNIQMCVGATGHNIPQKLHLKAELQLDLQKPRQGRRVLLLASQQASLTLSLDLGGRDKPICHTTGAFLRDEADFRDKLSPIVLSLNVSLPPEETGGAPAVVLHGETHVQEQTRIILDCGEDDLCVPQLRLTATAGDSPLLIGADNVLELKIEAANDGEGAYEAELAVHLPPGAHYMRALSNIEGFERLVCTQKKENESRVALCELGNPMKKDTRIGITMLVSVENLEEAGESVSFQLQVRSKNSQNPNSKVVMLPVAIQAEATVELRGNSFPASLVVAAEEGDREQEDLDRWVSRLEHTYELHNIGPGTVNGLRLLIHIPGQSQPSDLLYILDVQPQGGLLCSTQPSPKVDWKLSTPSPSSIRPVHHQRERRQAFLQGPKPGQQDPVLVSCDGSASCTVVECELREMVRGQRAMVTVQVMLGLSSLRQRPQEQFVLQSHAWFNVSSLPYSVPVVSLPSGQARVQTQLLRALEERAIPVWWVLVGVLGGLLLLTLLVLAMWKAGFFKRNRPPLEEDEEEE
# Sequence of GP IIb/IIIa in its activated, fibrinogen-bound state on activated mouse platelets (mouse) (O54890 26-787, chain 2 of 2, further chain): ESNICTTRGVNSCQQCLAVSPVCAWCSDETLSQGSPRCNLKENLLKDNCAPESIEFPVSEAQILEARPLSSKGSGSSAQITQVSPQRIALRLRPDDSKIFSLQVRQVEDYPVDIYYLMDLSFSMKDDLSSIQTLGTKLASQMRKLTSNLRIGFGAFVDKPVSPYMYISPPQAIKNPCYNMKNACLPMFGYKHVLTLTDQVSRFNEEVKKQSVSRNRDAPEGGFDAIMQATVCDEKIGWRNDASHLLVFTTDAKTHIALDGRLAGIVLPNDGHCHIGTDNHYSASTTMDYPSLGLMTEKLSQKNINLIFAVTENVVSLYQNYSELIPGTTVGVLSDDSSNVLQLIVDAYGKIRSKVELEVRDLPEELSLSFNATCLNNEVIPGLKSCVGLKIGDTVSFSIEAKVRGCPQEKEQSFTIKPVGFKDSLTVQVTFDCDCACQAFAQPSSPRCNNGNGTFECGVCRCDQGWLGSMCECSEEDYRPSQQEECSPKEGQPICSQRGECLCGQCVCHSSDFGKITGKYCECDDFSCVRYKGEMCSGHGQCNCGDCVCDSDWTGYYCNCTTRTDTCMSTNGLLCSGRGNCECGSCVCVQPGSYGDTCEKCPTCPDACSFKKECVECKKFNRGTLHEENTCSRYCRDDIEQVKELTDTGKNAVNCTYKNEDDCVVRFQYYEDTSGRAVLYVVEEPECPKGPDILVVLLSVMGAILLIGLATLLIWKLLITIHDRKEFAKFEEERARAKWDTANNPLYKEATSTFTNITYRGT
substance,measurement,setting,value
Control-MPIO (irrelevant single-chain antibody conjugated to 1 µm iron oxide microparticles) (scFv),luminal areas of low signal (MPIO-induced MRI signal void),[1],6.2
same,MPIOs bound per histology section (beads per section),[2],0.5
